From PMC9899272, “An engineered variant of MECR reductase reveals indispensability of long-chain acyl-ACPs for mitochondrial respiration” (Nature Communications, 2023)

Assays:
[1] = target: the molecule itself; experiment: crystal structure; sitting drop vapor diffusion at +4 °C, 16.82% PEG 6000, 1 M NaCl, 100 mM acetic acid, pH 4.5; trigonal space group P3(1)21; one chain in the asymmetric unit, dimer via a crystallographic 2-fold axis
[2] = substrate: CCC/C=C/C(=O)SCCNC(=O)CCNC(=O)[C@H](O)C(C)(C)COP(=O)(O)OP(=O)(O)OC[C@H]1O[C@@H](n2cnc3c(N)ncnc32)[C@H](O)[C@@H]1OP(=O)(O)O; experiment: spectrophotometric 2E-enoyl-CoA reductase assay, Michaelis-Menten fit; assay type: biochemical, Homo sapiens; settings: 125 µM NADPH, 100 µg bovine serum albumin, 50 mM potassium phosphate pH 7.5, 25 °C
Excerpt: (§1) spectrophotometric 2E-enoyl-CoA reductase assay, Michaelis-Menten fit on MECR

[3] = substrate: CCCCC/C=C/C(=O)SCCNC(=O)CCNC(=O)[C@H](O)C(C)(C)COP(=O)(O)OP(=O)(O)OC[C@H]1O[C@@H](n2cnc3c(N)ncnc32)[C@H](O)[C@@H]1OP(=O)(O)O; experiment: as above; assay type: biochemical, Homo sapiens; settings: 125 µM NADPH, 100 µg bovine serum albumin, 50 mM potassium phosphate pH 7.5, 25 °C
Excerpt: as §1

[4] = substrate: CCCCCCC/C=C/C(=O)SCCNC(=O)CCNC(=O)[C@H](O)C(C)(C)COP(=O)(O)OP(=O)(O)OC[C@H]1O[C@@H](n2cnc3c(N)ncnc32)[C@H](O)[C@@H]1OP(=O)(O)O; experiment: as above; assay type: biochemical, Homo sapiens; settings: 125 µM NADPH, 100 µg bovine serum albumin, 50 mM potassium phosphate pH 7.5, 25 °C
Excerpt: as §1

Protein	stoichiometry N [1]	Km [2]	kcat [2]	kcat/Km [2]	Km [3]	kcat [3]	kcat/Km [3]	Km [4]	kcat [4]	kcat/Km [4]
wild-type human MECR (2E-enoyl-ACP reductase) with C-terminal His-tag (enzyme, UniProt Q9BV79 31-373, looked up, the first N-terminal residues of the crystallised protein are A31-A41 (not defined in the maps); the C-terminus is seen till L374, followed by the six-residue His-tag; L374 lies beyond M373, the last visible residue of the earlier structures, and is probably a vector residue before the His-tag; also called wild-type MECR; MECR WT; source: E. coli BL 21 Star (DE3) pLysS, purified (Ni-NTA, …)) ASSYSASAEPARVRALVYGHHGDPAKVVELKNLELAAVRGSDVRVKMLAAPINPSDINMIQGNYGFLPELPAVGGNEGVAQVVAVGSNVTGLKPGDWVIPANAGLGTWRTEAVFSEEALIQVPSDIPLQSAATLGVNPCTAYRMLMDFEQLQPGDSVIQNASNSGVGQAVIQIAAALGLRTINVVRDRPDIQKLSDRLKSLGAEHVITEEELRRPEMKNFFKDMPQPRLALNCVGGKSSTELLRQLARGGTMVTYGGMAKQPVVASVSLLIFKDLKLRGFWLSQWKKDHSPDQFKELILTLCDLIRRGQLTAPACSQVPLQDYQSALEASMKPFISSKQILTM	2	90.6 ± 26.5 µM	0.99 ± 0.22 s⁻¹	10000 M⁻¹ s⁻¹	23.2 ± 5.4 µM	1.8 ± 0.13 s⁻¹	80000 M⁻¹ s⁻¹	15.9 ± 2.2 µM	0.62 ± 0.02 s⁻¹	40000 M⁻¹ s⁻¹
MECR G165Q variant with C-terminal His-tag (enzyme, human, UniProt Q9BV79 31-373, looked up, the first N-terminal residues of the crystallised protein are A31-A41 (not defined in the maps); the C-terminus is seen till L374, followed by the six-residue His-tag; L374 is probably a vector residue before the His-tag; also called G165Q MECR; G165Q mutant; source: E. coli BL 21 Star (DE3) pLysS, purified (Ni-NTA, size-exclusion chromatography); not shown: His6, C-terminal, kept) ASSYSASAEPARVRALVYGHHGDPAKVVELKNLELAAVRGSDVRVKMLAAPINPSDINMIQGNYGFLPELPAVGGNEGVAQVVAVGSNVTGLKPGDWVIPANAGLGTWRTEAVFSEEALIQVPSDIPLQSAATLQVNPCTAYRMLMDFEQLQPGDSVIQNASNSGVGQAVIQIAAALGLRTINVVRDRPDIQKLSDRLKSLGAEHVITEEELRRPEMKNFFKDMPQPRLALNCVGGKSSTELLRQLARGGTMVTYGGMAKQPVVASVSLLIFKDLKLRGFWLSQWKKDHSPDQFKELILTLCDLIRRGQLTAPACSQVPLQDYQSALEASMKPFISSKQILTM	2	111.2 ± 17.3 µM	3.49 ± 0.33 s⁻¹	30000 M⁻¹ s⁻¹	114.1 ± 16.2 µM	12.4 ± 1.9 s⁻¹	110000 M⁻¹ s⁻¹	8.15 ± 1.54 µM	0.3 ± 0.02 s⁻¹	40000 M⁻¹ s⁻¹
